The test has as its target Sra1 (human, UniProt Q7L576 1-1253). The test is described as follows: reconstitution and co-purification.

The source of these data is publication PMC10979099 (The Journal of Biological Chemistry, 2024).

Sra1, sequence (Q7L576 whole entry): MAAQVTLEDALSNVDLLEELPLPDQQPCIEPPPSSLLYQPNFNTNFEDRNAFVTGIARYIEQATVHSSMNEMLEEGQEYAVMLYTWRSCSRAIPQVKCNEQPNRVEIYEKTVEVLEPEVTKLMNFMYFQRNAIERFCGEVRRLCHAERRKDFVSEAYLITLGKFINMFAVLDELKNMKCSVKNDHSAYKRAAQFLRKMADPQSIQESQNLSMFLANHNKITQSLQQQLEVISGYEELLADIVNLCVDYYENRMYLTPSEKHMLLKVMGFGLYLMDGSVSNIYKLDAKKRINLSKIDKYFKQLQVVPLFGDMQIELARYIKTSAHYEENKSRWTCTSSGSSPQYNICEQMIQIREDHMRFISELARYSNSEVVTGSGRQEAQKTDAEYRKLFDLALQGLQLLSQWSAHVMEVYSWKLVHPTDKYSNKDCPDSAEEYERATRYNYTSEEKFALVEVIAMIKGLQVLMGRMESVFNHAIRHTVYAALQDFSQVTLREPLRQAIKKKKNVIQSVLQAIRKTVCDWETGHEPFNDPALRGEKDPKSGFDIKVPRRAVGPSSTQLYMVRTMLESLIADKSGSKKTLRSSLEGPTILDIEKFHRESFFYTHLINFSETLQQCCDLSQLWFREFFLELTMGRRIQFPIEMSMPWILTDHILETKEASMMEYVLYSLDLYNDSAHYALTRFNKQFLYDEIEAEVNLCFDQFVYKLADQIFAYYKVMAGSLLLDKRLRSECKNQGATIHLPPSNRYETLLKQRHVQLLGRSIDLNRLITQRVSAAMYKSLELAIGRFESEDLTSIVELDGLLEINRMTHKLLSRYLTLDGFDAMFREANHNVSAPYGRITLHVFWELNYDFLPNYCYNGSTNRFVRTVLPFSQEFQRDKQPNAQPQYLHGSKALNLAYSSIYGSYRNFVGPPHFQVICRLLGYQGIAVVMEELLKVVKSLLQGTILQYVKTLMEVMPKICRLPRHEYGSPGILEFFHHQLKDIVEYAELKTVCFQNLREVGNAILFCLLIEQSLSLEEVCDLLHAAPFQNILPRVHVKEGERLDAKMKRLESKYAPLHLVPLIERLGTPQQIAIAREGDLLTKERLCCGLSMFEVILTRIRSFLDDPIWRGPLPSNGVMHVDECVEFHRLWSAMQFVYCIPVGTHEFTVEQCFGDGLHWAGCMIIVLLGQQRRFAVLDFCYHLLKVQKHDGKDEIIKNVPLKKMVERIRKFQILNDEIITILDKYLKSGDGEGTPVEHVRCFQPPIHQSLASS

B1: Nap1 (natural protein)
chain: MSRSVLQPSQQKLAEKLTILNDRGVGMLTRLYNIKKACGDPKAKPSYLIDKNLESAVKFIVRKFPAVETRNNNQQLAQLQKEKSEILKNLALYYFTFVDVMEFKDHVCELLNTIDVCQVFFDITVNFDLTKNYLDLIITYTTLMILLSRIEERKAIIGLYNYAHEMTHGASDREYPRLGQMIVDYENPLKKMMEEFVPHSKSLSDALISLQMVYPRRNLSADQWRNAQLLSLISAPSTMLNPAQSDTMPCEYLSLDAMEKWIIFGFILCHGILNTDATALNLWKLALQSSSCLSLFRDEVFHIHKAAEDLFVNIRGYNKRINDIRECKEAAVSHAGSMHRERRKFLRSALKELATVLSDQPGLLGPKALFVFMALSFARDEIIWLLRHADNMPKKSADDFIDKHIAELIFYMEELRAHVRKYGPVMQRYYVQYLSGFDAVVLNELVQNLSVCPEDESIIMSSFVNTMTSLSVKQVEDGEVFDFRGMRLDWFRLQAYTSVSKASLGLADHRELGKMMNTIIFHTKMVDSLVEMLVETSDLSIFCFYSRAFEKMFQQCLELPSQSRYSIAFPLLCTHFMSCTHELCPEERHHIGDRSLSLCNMFLDEMAKQARNLITDICTEQCTLSDQLLPKHCAKTISQAVNKKSKKQTGKKGEPEREKPGVESMRKNRLVVTNLDKLHTALSELCFSINYVPNMVVWEHTFTPREYLTSHLEIRFTKSIVGMTMYNQATQEIAKPSELLTSVRAYMTVLQSIENYVQIDITRVFNNVLLQQTQHLDSHGEPTITSLYTNWYLETLLRQVSNGHIAYFPAMKAFVNLPTENELTFNAEEYSDISEMRSLSELLGPYGMKFLSESLMWHISSQVAELKKLVVENVDVLTQMRTSFDKPDQMAALFKRLSSVDSVLKRMTIIGVILSFRSLAQEALRDVLSYHIPFLVSSIEDFKDHIPRETDMKVAMNVYELSSAAGLPCEIDPALVVALSSQKSENISPEEEYKIACLLMVFVAVSLPTLASNVMSQYSPAIEGHCNNIHCLAKAINQIAAALFTIHKGSIEDRLKEFLALASSSLLKIGQETDKTTTRNRESVYLLLDMIVQESPFLTMDLLESCFPYVLLRNAYHAVYKQSVTSSA
Turning to B1, the binding result is reported as “binds”.
